Experimental data published in article PMC3064491 (Nature, 2011).

Target: T1, human OGT construct (hOGT4.5) containing 4.5 TPR units and the catalytic domain (human, UniProt O15294-3 313-1031)
T1 sequence (looked up): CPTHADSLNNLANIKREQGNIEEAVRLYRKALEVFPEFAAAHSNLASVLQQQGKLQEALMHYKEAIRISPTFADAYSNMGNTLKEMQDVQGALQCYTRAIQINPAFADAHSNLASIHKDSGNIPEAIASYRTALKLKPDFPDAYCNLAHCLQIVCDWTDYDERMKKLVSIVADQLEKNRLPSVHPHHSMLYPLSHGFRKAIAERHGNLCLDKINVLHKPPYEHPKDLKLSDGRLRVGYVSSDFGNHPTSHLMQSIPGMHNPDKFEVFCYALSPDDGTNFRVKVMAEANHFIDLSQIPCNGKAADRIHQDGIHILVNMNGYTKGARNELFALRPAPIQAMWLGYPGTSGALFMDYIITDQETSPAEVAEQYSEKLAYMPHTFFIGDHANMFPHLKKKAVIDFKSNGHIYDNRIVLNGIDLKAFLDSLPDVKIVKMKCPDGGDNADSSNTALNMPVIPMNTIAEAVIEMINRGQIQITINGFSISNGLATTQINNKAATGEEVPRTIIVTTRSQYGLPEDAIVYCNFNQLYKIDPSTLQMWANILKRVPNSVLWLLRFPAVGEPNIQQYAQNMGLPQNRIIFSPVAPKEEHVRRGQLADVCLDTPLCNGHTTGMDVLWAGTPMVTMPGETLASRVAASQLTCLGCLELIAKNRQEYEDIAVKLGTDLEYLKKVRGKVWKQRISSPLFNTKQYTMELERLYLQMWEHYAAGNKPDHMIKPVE
Assay: crystal structure

binding result: binds
Binder: YPGGSTPVSSANMM [14 residue-CKII peptide substrate]
